Among the data in the supplement of paper PMC12042874 are amyloid nucleation score values, retold here.

± gives the uncertainty stated by the source.

A short description of this data set: amyloid nucleation score (Sup35N fusion, yeast selection) (log enrichment); library NNK3; higher = more nucleation; inactive = no reads after selection. In short, it runs like this: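 Libraries of peptides of 20 random codons fused to Sup35N were expressed in psi-negative yeast and induced 24 hours with 100 μM copper sulfate. Selection was 7 days at 30°C on medium lacking adenine and uracil, and plasmid inserts were Illumina-sequenced before and after selection. Nucleation score is the DiMSum log enrichment of output over input reads, centred on the mode score of non-aggregating sequences, and sequences with under 100 input reads were left out.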
In the case of GACYTFAA, the amyloid nucleation score result is “inactive”. Under GADDVTNRRTVVVSTQALCL stands “inactive”; under GADKFSMLRVYGICRLGSAC, -0.024 ± 0.93; under GAFSWCSRVVDMVRLTRCDH, “inactive”.

The substance GALGSVMVNGRGVTSEGSPY showed an amyloid nucleation score of 0.341 ± 0.39.

Substance GCFGPLCDRLSEWMENCWKK displayed an amyloid nucleation score of 0.392 ± 0.35. Turning to GCFSCVCLP, the amyloid nucleation score entry was “inactive”. GCFYCQALNLHPLTSVHAD: the amyloid nucleation score result is “inactive”. The value for GCFYIFRIY was -0.222 ± 1.3; that for GCGRCFL was “inactive”. The substance GCNGDRFRF registered an amyloid nucleation score of -0.255 ± 0.88. As to GCWECPTYQMLCTRVCLTWT, the amyloid nucleation score result was “inactive”.

Turning to GDEVHGFIVVQSREAFSRKL, the amyloid nucleation score entry was “inactive”.

In the case of GDFSSCL, the amyloid nucleation score entry is “inactive”.

Consider GDGAYS, for which the amyloid nucleation score entry was “inactive”.

In the case of GDGNRWDRTGSCHLQGAYCR, the amyloid nucleation score entry was “inactive”. The value for GDGYRQRVLLWMLVSAGPAS was “inactive”; that for GDLGDVPGRWDWNKSWFVNY was “inactive”.

For the substance GDMFDWFSGELVFRMRNILC, the amyloid nucleation score is -0.917 ± 1.1. Under GDMKGSISCIIKKEVINVQC stands “inactive”. With GDSLWIFTAGIDCSYRLIFD, the amyloid nucleation score entry is “inactive”.

On to GDSSVTWI, for which the amyloid nucleation score entry is “inactive”. The value for GDTDFYRSCNASYIPSLSRL was “inactive”. GFAMVLSWLKSGFPISRDLR: the amyloid nucleation score entry is “inactive”.

Turning to GFETLYIYAVRGN, the amyloid nucleation score entry is “inactive”.

As to GFIVGLLARSTIFTTNYMLK, the amyloid nucleation score entry was “inactive”. Consider GFKFKYSYRIDLWEGHWVVR, for which the amyloid nucleation score result is “inactive”. For the substance GFLDDYIIMDQLLHEFVKRF, the amyloid nucleation score entry was “inactive”. For GFRFNKIRMSPDSNTLCGCA, the amyloid nucleation score result is “inactive”. GFSCVNFFAWIL had an amyloid nucleation score of 1.81 ± 0.082. Under GFSLKGLNSNDTRSLSHKLG stands “inactive”. As for GFSYMLVFSNGVYMLIRIRW, the amyloid nucleation score entry is “inactive”.

As to GFYNFVFSCASGYRCTGVMG, the amyloid nucleation score was -0.357 ± 0.59. Under GGAKVLTV stands “inactive”; under GGCIGGSYSLERMFYSRVDE, “inactive”; under GGKLKRCVYG, “inactive”. Under GGRLSLKESWKAGFSIAERF stands “inactive”.

On to GGRYTVAAEVKVTHAYATG, for which the amyloid nucleation score entry is “inactive”.

Regarding GGSLYACRGTLRLSNTNVKA, the amyloid nucleation score result was “inactive”. Under GGTLFLYGLIHQHWFLRMHE stands 1.05 ± 0.16; under GHFGVLMSGSTGGNLANQSG, “inactive”; under GHFLISIKKLL, “inactive”. The value for GHLMGETTY was “inactive”. GHLSIHREGFNLVSHLCANF: the amyloid nucleation score entry was “inactive”. The value for GHMWFFVFY was 2.52 ± 0.061; that for GHRRVVSLCYTYMRWI was “inactive”; that for GIAIFTMDCGV was “inactive”. For the substance GIELAVFYCHYIRVGSDVY, the amyloid nucleation score entry was “inactive”.

On to GIFKFMAV, for which the amyloid nucleation score result was “inactive”. Under GIGILEVWVSVRYGSWFKRI stands “inactive”; under GIGVSESRCVTVIWYYGGAV, “inactive”; under GILLRFNKGA, “inactive”. Under GIQIYAMFTFSKSFMLGNWY stands “inactive”; under GIRVHGNFYMNSGSSTGG, 1.49 ± 0.073; under GIWCYAITLGFRPAGSTWDS, 1.02 ± 0.15. For the substance GIYPSHHWGI, the amyloid nucleation score result was “inactive”. For the substance GKISVMYEMIYNLTNYDGRL, the amyloid nucleation score entry was “inactive”. Under GKSLMK stands “inactive”; under GKVATHSIHDYFELSMTKGC, “inactive”; under GKVNSWIGVRMKLLWSGRFG, “inactive”. Under GLAQTSLFI stands “inactive”; under GLCRNCF, “inactive”; under GLFCNVFMNKCSS, “inactive”. On to GLFSLIIR, for which the amyloid nucleation score result was “inactive”. GLGMGAPQSILWVGDLLMTN: the amyloid nucleation score entry is “inactive”.

Turning to GLKFMRNVSTFRYLRRKTDY, the amyloid nucleation score entry is “inactive”.

In turn, GLLFCSL yielded an amyloid nucleation score of -0.248 ± 0.34.

Take GLLPSKKILFLAILTHNRCW: the amyloid nucleation score result was “inactive”. The value for GLLSR was “inactive”; that for GLLVTTPMLKLNYFNVLDLG was 0.99 ± 0.1. Substance GLMALNVMSVNTTEYCRAYW came in with an amyloid nucleation score of 0.56 ± 0.12.

For GLMLDFILYQWTWYKLSMDT, the amyloid nucleation score result was “inactive”. Take GLNDHSLI: the amyloid nucleation score result was “inactive”. In turn, GLRDMGDKYVYMVSGGCIYG had an amyloid nucleation score of 2.19 ± 0.069. Under GLRNYRDGVKIASAVSVGAS stands “inactive”; under GLVCWTG, “inactive”. The value for GMAETRWGLRKIWKVAGARI was -0.85 ± 1.9; that for GMALPRVIVFIGNRITTNLG was 2.31 ± 0.065; that for GMERFNGFKRVFMDSGCLHR was -0.707 ± 0.96. Under GMHCFIEPLSRVFGSNCGNY stands “inactive”; under GMPKSWYMPVRMMQASSSAF, “inactive”.

In turn, GMSICVPSKS showed an amyloid nucleation score of 0.179 ± 0.34. Under GMSLECNFIYL stands 1.84 ± 0.1; under GNEWRWWVLRNLLSCFSIP, “inactive”; under GNHQSRYSFVP, “inactive”. Under GNKMVLVW stands “inactive”; under GNMCDRTYLRMMLFHCRMPS, “inactive”.

With GNSNTMSVLRCFLNPFPLVW, the amyloid nucleation score result was “inactive”. GNVMSRRDTLWIVIYVRFRH: the amyloid nucleation score entry is “inactive”. Under GNYVTVHIYVKAVFGNG stands “inactive”; under GPEHQSVPRAFHQLRYLIYN, “inactive”; under GPFARNS, “inactive”. Under GPFQLA stands “inactive”; under GPHIVRYERTFNG, “inactive”; under GPHRILIAVESMTYFEGEVW, “inactive”. Under GPIYWLLKGQNFESRVDTNL stands “inactive”. As for GPNRYW, the amyloid nucleation score entry was “inactive”. Under GPSLYINLMRVGCRRGHLFL stands 1.46 ± 0.12.
